Results taken from paper doi:10.1101/2024.10.29.618823 (bioRxiv, 2024).
Read-outs that look alike come from different tables or passages of the source.

How the values were obtained:
Assay in all cases: cryo-EM structure
cryo-EM structure [1] = target: the molecule itself
cryo-EM structure [2] = target: the molecule itself; remark: listed apart in the source
cryo-EM structure [3] = target: the molecule itself; remark: listed apart in the source

B1: Csy3 (natural protein)
chain: MSKPILSTASVLAFERKLDPSDALMSAGAWAQRDASQEWPAVTVREKSVRGTISNRLKTKDRDPAKLDASIQSPNLQTVDVANLPSDADTLKVRFTLRVLGGAGTPSACNDAAYRDKLLQTVATYVNDQGFAELARRYAHNLANARFLWRNRVGAEAVEVRINHIRQGEVARAWRFDALAIGLRDFKADAELDALAELIASGLSGSGHVLLEVVAFARIGDGQEVFPSQELILDKGDKKGQKSKTLYSVRDAAAIHSQKIGNALRTIDTWYPDEDGLGPIAVEPYGSVTSQGKAYRQPKQKLDFYTLLDNWVLRDEAPAVEQQHYVIANLIRGGVFGEAEEK
cryo-EM structure [1]
  stoichiometry N: 4
cryo-EM structure [2]
  stoichiometry N: 6
cryo-EM structure [3]
  stoichiometry N: 5
